substrate: N[C@@H](CCC(=O)O)C(=O)O; assay: initial rates; GABA dansylated, HPLC; type: biochemical, Levilactobacillus brevis; details: 0.2 mol/L HAc-NaAc buffer, pH 4.8, 10-100 mmol/L L-glutamate, standard assay 48 °C, 40 μmol/L PLP
Source text: initial rates; GABA dansylated, HPLC on GAD (glutamate decarboxylase; GAD1407)

Protein | Km | kcat | kcat/Km
GAD (glutamate decarboxylase; GAD1407) (Levilactobacillus brevis; N193D) (protein, pET28a(+)-GAD1407, expressed in E. coli BL21(DE3), Ni-NTA purified (His tag)) MAMLYGKHTHETDETLKPIFGASAERHDLPKYKLAKHALEPREADRLVRDQLLDEGNSRLNLATFCQTYMEPEAVELMKDTLEKNAIDKSEYPRTAEIENRCVNIIANLWHAPEAESFTGTSTIGSSEACMLAGLAMKFAWRKRAKANGLDLTAHQPNIVISAGYQVCWEKFCVYWDIDMHVVPMDDDHMSLDVDHVLDYVDDYTIGIVGIMGITYTGQYDDLARLDAVVERYNRTTKFPVYIHVDAASGGFYTPFIEPELKWDFRLNNVISINASGHKYGLVYPGVGWVIWRDQQYLPKELVFKVSYLGGELPTMAINFSHSASQLIGQYYNFIRFGFDGYREIQEKTHDVARYLAKSLTKLGGFSLINDGHELPLICYELTADSDREWTLYDLSDRLLMKGWQVPTYPLPKNMTDRVIQRIVVRADFGMSMAHDFIDDLTQAIHDLDQAHIVFHSDPQPKKYGFTH | 34.35 mM | 138 s⁻¹ | 4000 M⁻¹ s⁻¹
GAD (glutamate decarboxylase; GAD1407) (Levilactobacillus brevis; D203E) (protein, pET28a(+)-GAD1407, expressed in E. coli BL21(DE3), Ni-NTA purified (His tag)) MAMLYGKHTHETDETLKPIFGASAERHDLPKYKLAKHALEPREADRLVRDQLLDEGNSRLNLATFCQTYMEPEAVELMKDTLEKNAIDKSEYPRTAEIENRCVNIIANLWHAPEAESFTGTSTIGSSEACMLAGLAMKFAWRKRAKANGLDLTAHQPNIVISAGYQVCWEKFCVYWDIDMHVVPMDDDHMSLNVDHVLDYVDEYTIGIVGIMGITYTGQYDDLARLDAVVERYNRTTKFPVYIHVDAASGGFYTPFIEPELKWDFRLNNVISINASGHKYGLVYPGVGWVIWRDQQYLPKELVFKVSYLGGELPTMAINFSHSASQLIGQYYNFIRFGFDGYREIQEKTHDVARYLAKSLTKLGGFSLINDGHELPLICYELTADSDREWTLYDLSDRLLMKGWQVPTYPLPKNMTDRVIQRIVVRADFGMSMAHDFIDDLTQAIHDLDQAHIVFHSDPQPKKYGFTH | 26.60 mM | 40.2 s⁻¹ | 1510 M⁻¹ s⁻¹
GAD (glutamate decarboxylase; GAD1407) (Levilactobacillus brevis; S325A) (protein, pET28a(+)-GAD1407, expressed in E. coli BL21(DE3), Ni-NTA purified (His tag)) MAMLYGKHTHETDETLKPIFGASAERHDLPKYKLAKHALEPREADRLVRDQLLDEGNSRLNLATFCQTYMEPEAVELMKDTLEKNAIDKSEYPRTAEIENRCVNIIANLWHAPEAESFTGTSTIGSSEACMLAGLAMKFAWRKRAKANGLDLTAHQPNIVISAGYQVCWEKFCVYWDIDMHVVPMDDDHMSLNVDHVLDYVDDYTIGIVGIMGITYTGQYDDLARLDAVVERYNRTTKFPVYIHVDAASGGFYTPFIEPELKWDFRLNNVISINASGHKYGLVYPGVGWVIWRDQQYLPKELVFKVSYLGGELPTMAINFSHSAAQLIGQYYNFIRFGFDGYREIQEKTHDVARYLAKSLTKLGGFSLINDGHELPLICYELTADSDREWTLYDLSDRLLMKGWQVPTYPLPKNMTDRVIQRIVVRADFGMSMAHDFIDDLTQAIHDLDQAHIVFHSDPQPKKYGFTH | 42.39 mM | 176 s⁻¹ | 4160 M⁻¹ s⁻¹
GAD (glutamate decarboxylase; GAD1407) (Levilactobacillus brevis) (protein, pET28a(+)-GAD1407, expressed in E. coli BL21(DE3), Ni-NTA purified (His tag)) MAMLYGKHTHETDETLKPIFGASAERHDLPKYKLAKHALEPREADRLVRDQLLDEGNSRLNLATFCQTYMEPEAVELMKDTLEKNAIDKSEYPRTAEIENRCVNIIANLWHAPEAESFTGTSTIGSSEACMLAGLAMKFAWRKRAKANGLDLTAHQPNIVISAGYQVCWEKFCVYWDIDMHVVPMDDDHMSLNVDHVLDYVDDYTIGIVGIMGITYTGQYDDLARLDAVVERYNRTTKFPVYIHVDAASGGFYTPFIEPELKWDFRLNNVISINASGHKYGLVYPGVGWVIWRDQQYLPKELVFKVSYLGGELPTMAINFSHSASQLIGQYYNFIRFGFDGYREIQEKTHDVARYLAKSLTKLGGFSLINDGHELPLICYELTADSDREWTLYDLSDRLLMKGWQVPTYPLPKNMTDRVIQRIVVRADFGMSMAHDFIDDLTQAIHDLDQAHIVFHSDPQPKKYGFTH | 39.72 mM | 102 s⁻¹ | 2570 M⁻¹ s⁻¹

— paper PMC7037157, “Parallel Strategy Increases the Thermostability and Activity of Glutamate Decarboxylase” (Molecules, 2020)
